# Results as given in patent US20040029280A1.
# Tests used:
# [1] = molecular target: Recombinant trimeric Ad5 knob protein with an N-terminal 6-His tag (adenovirus type 5 (Ad5)) (UniProt P11818); assay: ELISA on His-tagged Ad5 knob on Ni-NTA strips, detection with anti-FGF2 antibody and anti-rabbit HRP; control
# [2] = molecular target: recombinant Ad5 knob (knob domain of the adenovirus type 5 fiber protein) (adenovirus type 5 (Ad5)) (UniProt P11818); assay: Biacore analysis
# [3] = molecular target: adenoviral fiber knob on AdCMVLuc (Ad5 vector) virions (adenovirus type 5 (Ad5)) (UniProt P11818); assay: cell-based or functional assay
# [4] = molecular target: FGF receptors; assay: cell-based or functional assay
# [5] = molecular target: Recombinant trimeric Ad5 knob protein with an N-terminal 6-His tag (adenovirus type 5 (Ad5)) (UniProt P11818); assay: ELISA on His-tagged Ad5 knob on Ni-NTA strips, detection with anti-FGF2 antibody and anti-rabbit HRP; wells without knob gave 0.35+0.04
substance,measurement,setting,value
FGF2 mutein (C96S) (from UniProt P09038 1-155) (ligand),absorbance,[1],1.55 absorbance
Fab fragment of 1D6.14 anti-Ad5 knob neutralizing antibody,Kd,[2],2.1 nM
same,"block of AdCMV-Luc transduction (luciferase), CVU-1 cells",[3],20%
same,"block of AdCMV-Luc transduction (luciferase), KS-SLK cells",[3],> 50%
same,"block of AdCMV-Luc transduction (luciferase), KSY-1 cells",[3],> 50%
same,"block of AdCMV-Luc transduction (luciferase), RW376 cells",[3],> 50%
same,"inhibition of AdCMVLuc infection (luciferase), 3T3 cells",[3],97%
same,"inhibition of AdCMVLuc infection (luciferase), D54 MG cells",[3],98.3%
same,"inhibition of AdCMVLuc infection (luciferase), PANC-1 cells",[3],98.8%
same,"inhibition of AdCMVLuc infection (luciferase), SKOV3.1p1 cells",[3],69.3%
same,"inhibition of AdCMVLuc transfection (luciferase), HUVECs",[3],87%
Fab-FGF2 conjugate (1D6.14 Fab chemically conjugated to FGF2 C96S mutein) (from UniProt P09038 1-155),"inhibition by anti-FGF2 antibody of infection by the Ad-Fab-FGF2 complex (luciferase), 3T3 cells",[4],96.1%
same,"inhibition by anti-FGF2 antibody of infection by the Ad-Fab-FGF2 complex (luciferase), D54 MG cells",[4],94%
same,"inhibition by anti-FGF2 antibody of infection by the Ad-Fab-FGF2 complex (luciferase), PANC-1 cells",[4],96.3%
same,"inhibition by anti-FGF2 antibody of infection by the Ad-Fab-FGF2 complex (luciferase), SKOV3.1p1 cells",[4],90.1%
same,absorbance,[5],3.7 absorbance
